We go through 2 molecules from US20220194999A1.

A value given as a limit tells only on which side of the number the result lay.

The assay concerns the target HLA-A*02:01 class I complex (conditional p*HLA*02:01, biotinylated heavy chain with beta2-microglobulin) (human). As to the kind of experiment: UV peptide exchange, HLA class I ELISA, % of Pos peptide. To be noted: remark: other sources report otherwise.

Regarding LVVVGACGV (here or on the partner: biotinylated heavy chain) [KRAS.G12C mutant peptide …], the Average % amounted to 7%, the Exch I (%) came to 6.5%, the Exch II (%) stood at 7.5% and the average relative binding (%) is < 15%.
Take LVVVGAVGV (here or on the partner: biotinylated heavy chain) [KRAS.G12V mutant peptide …]: the Average % was found to be 4.5%, the Exch I (%) was found to be 4.3%, the Exch II (%) was 4.6% and the average relative binding (%) was < 15%.
